Test results from article PMC5358723 (Genes & Development, 2017).

T1: full-length ABRA1, bacterially expressed (UniProt Q6UWZ7 1-409)
T1 sequence (looked up): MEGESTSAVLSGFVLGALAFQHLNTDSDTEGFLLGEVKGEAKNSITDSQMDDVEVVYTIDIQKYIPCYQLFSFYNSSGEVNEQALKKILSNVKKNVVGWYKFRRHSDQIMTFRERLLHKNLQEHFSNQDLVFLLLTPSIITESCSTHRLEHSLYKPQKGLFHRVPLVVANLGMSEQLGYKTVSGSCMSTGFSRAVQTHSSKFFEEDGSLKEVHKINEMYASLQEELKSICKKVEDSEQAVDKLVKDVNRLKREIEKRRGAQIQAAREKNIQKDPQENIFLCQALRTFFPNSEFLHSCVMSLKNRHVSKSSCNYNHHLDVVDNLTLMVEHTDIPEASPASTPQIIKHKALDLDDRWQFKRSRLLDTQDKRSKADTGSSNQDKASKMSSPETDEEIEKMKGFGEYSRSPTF

B1: ZMYM3 CT (amino acids 1000-1370), bacterially expressed (domain or fragment, human, UniProt Q14202 1000-1370, looked up)
chain: FPKNPLDINPSVDFLFDCGLVGPEDVSTEQDLPRTMRKGQKRLVLSESCSRDSMSSQPSCTGLNYSYGVNAWKCWVQSKYANGETSKGDELRFGPKPMRIKEDILACSAAELNYGLAQFVREITRPNGERYEPDSIYYLCLGIQQYLLENNRMVNIFTDLYYLTFVQELNKSLSTWQPTLLPNNTVFSRVEEEHLWECKQLGVYSPFVLLNTLMFFNTKFFGLQTAEEHMQLSFTNVVRQSRKCTTPRGTTKVVSIRYYAPVRQRKGRDTGPGKRKREDEAPILEQRENRMNPLRCPVKFYEFYLSKCPESLRTRNDVFYLQPERSCIAESPLWYSVIPMDRSMLESMLNRILAVREIYEELGRPGEEDLD
B2: RAP80-AIR (amino acids 227-346), bacterially expressed (domain or fragment, UniProt Q96RL1 227-346, looked up)
chain: HTQCGKPQESTGRGSAFLKAVQGSGDTSRHCLPTLADAKGLQDTGGTVNYFWGIPFCPDGVDPNQYTKVILCQLEVYQKSLKMAQRQLLNKKGFGEPVLPRPPSLIQNECGQGEQASEKN

Experiments:
[1] = biological target: T1, full-length ABRA1, bacterially expressed; test: pull-down
[2] = biological target: B1; test: pull-down

| Binder | binding result [1] | binding result [2] |
| --- | --- | --- |
| B1 | binds |  |
| B2 |  | binds |
